Reference: patent US20040072749A1

Target: cell-surface MOG-specific IgG1 of 8.18-C5 hybridoma cells
Assay: flow cytometry on 8.18-C5 hybridoma cells, biotinylated rMOG and FITC-streptavidin

## recombinant, biotinylated MOG (rMOG)
  percent of cells that bound rMOG: > 90%
